The text below walks through data of publication PMC6102046 (Nature structural & molecular biology, 2017).

To fix the notation:
T1: CNPY2 (UniProt Q9Y2B0)
T1 chain: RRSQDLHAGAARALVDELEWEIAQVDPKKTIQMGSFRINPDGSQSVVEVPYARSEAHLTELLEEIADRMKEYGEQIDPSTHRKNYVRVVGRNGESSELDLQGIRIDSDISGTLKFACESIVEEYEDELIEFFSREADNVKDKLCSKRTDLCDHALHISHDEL

T2: CNPY2 (UniProt Q9Y2B0)
T2 chain: T1 chain with A8C, A11C, A66C

B1: 6X His/T7-tagged PERK luminal domain (PERK-LD) (domain or fragment, UniProt Q9Z2B5 29-510, looked up)
chain: VAPARSLLAPASETVFGLGAAAAPTSAARVPAVATAEVTVEDAEALPAAAGEPESRATEPDDDVELRPRGRSLVIISTLDGRIAALDAENDGKKQWDLDVGSGSLVSSSLSKPEVFGNKMIIPSLDGDLFQWDRDRESMEAVPFTVESLLESSYKFGDDVVLVGGKSLITYGLSAYSGKLRYICSALGCRRWDSDEMEEEEDILLLQRTQKTVRAVGPRSGSEKWNFSVGHFELRYIPDMETRAGFIESTFKPGGNKEDSKIISDVEEQEATMLDTVIKVSVADWKVMAFSRKGGRLEWEYQFCTPIASAWLVRDGKVIPISLFDDTSYTASEEALGDEEDIVEAARGATENSVYLGMYRGQLYLQSSVRVSEKFPTSPKALESVNGENAIIPLPTIKWKPLIHSPSRTPVLVGSDEFDKCLSNDKYSHEEYSNGALSILQYPYDNGYYLPYYKRERNKRSTQITVRFLDSPHYSKNIRKKD
B2: PERK LD (protein)
chain: AGRARGLPAPTAEAAFGLGAAAAPTSATRVPAAGAVAAAEVTVEDAEALPAAAGEQEPRGPEPDDETELRPRGRSLVIISTLDGRIAALDPENHGKKQWDLDVGSGSLVSSSLSKPEVFGNKMIIPSLDGALFQWDQDRESMETVPFTVESLLESSYKFGDDVVLVGGKSLTTYGLSAYSGKVRYICSALGCRQWDSDEMEQEEDILLLQRTQKTVRAVGPRSGNEKWNFSVGHFELRYIPDMETRAGFIESTFKPNENTEESKIISDVEEQEAAIMDIVIKVSVADWKVMAFSKKGGHLEWEYQFCTPIASAWLLKDGKVIPISLFDDTSYTSNDDVLEDEEDIVEAARGATENSVYLGMYRGQLYLQSSVRISEKFPSSPKALESVTNENAIIPLPTIKWKPLIHSPSRTPVLVGSDEFDKCLSNDKFSHEEYSNGALSILQYPYDNGYYLPYYKRERNKRSTQITVRFLDNPHYNKNIRKKD
B3: His-tagged CNPY2 wild type (natural protein, UniProt Q9QXT0 21-182, looked up)
chain: T1 chain with A8C, A11C, Q24R, I65V, A66C, G90S, I157R
B4: His-tagged CNPY2 3C-A mutant (C28A, C31A, C86A) (natural protein, UniProt Q9QXT0 21-182, looked up)
chain: T1 chain with Q24R, I65V, G90S, I157R

Common to all, as to experiment: ITC
(Isothermal titration calorimetry measures the heat released or taken up as one component is titrated into another.)

For assay [1], the target named is B3.
Assay [2] concerns the target B4.
In assay [3] the target is T1, CNPY2.
In assay [4] the target is T2, CNPY2.
Assay [5] has as its target B1.

Where a chain is given by its changes, count along the chain named. Names and notes keep the numbering of the source.

What is called stoichiometry N is a count of units in the complex or per binding partner. As for B1, the “stoichiometry N” value in assay [1] came to 1.16; in assay [2], 1.04.

What is called Kd is the concentration at which binding is half-saturated. Regarding B2, the Kd in assay [3] worked out at 7.5 µM; in assay [4] it was 13.2 µM.

B3 yielded a Kd in assay [5] of 13.2 µM.

Take B4: in assay [5], the Kd worked out at 7.5 µM.
